Laboratory results reported in patent publication US20120121596A1 (published 2012).
Numbering of substitutions follows the chain as printed.

Legend:
[1] = molecular target: HER3 on cells (MCF7 cells; MDA-175 cells) (UniProt P21860 20-1342, limits assumed); test: cell-based or functional assay
[2] = molecular target: T1, monomeric human HER3-ecd (Example 9) (human, UniProt P21860 20-643); test: SPR, both experiments; reference: affinity for EGFR
T1 construct: extracellular domain

[3] = molecular target: T2, monomeric human EGFR-ecd (Example 9) (human, UniProt P00533 25-637); test: SPR BIAcore 2000, DL11f human IgG1 immobilized on CM5, monomeric ecd analyte 0.244-250 nM, 25 C
T2 construct: range 1-637

[4] = molecular target: T1, monomeric human HER3-ecd (Example 9); test: as above
[5] = molecular target: T3, human HER3-Fc (Example 9) (human, UniProt P21860 20-640); test: SPR, both experiments; reference: affinity for EGFR
T3 construct: range 1-640; Produced in CHO cells, protein A purified; also called human HER3-IgG1; not shown: Fc region of human IgG1

[6] = molecular target: T3, human HER3-Fc (Example 9); test: SPR BIAcore 2000, Fc fusion captured on CM5 with human Antibody Capture Kit, Fab analyte 0.244-250 nM, 25 C, 1:1 Langmuir
[7] = molecular target: T4, human EGFR-Fc (Example 9) (human, UniProt P00533 25-637); test: as above
T4 construct: range 1-637; Produced in CHO cells, protein A purified; also called Recombinant human EGFR-IgG1; not shown: Fc region of human IgG1

HER4-ECD-Fc [8] = molecular target: T5, HER4-ECD-Fc (human, UniProt Q15303 26-651, limits assumed); test: direct phage ELISA, proteins coated at 2 µg/ml, phage-Fab supernatant, OD450;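 note: specificity test of dual-activity clones, with binding assessed across an antigen panel to check whether each recognises only its cognate target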
T5 construct: extracellular domain
T5 sequence (looked up): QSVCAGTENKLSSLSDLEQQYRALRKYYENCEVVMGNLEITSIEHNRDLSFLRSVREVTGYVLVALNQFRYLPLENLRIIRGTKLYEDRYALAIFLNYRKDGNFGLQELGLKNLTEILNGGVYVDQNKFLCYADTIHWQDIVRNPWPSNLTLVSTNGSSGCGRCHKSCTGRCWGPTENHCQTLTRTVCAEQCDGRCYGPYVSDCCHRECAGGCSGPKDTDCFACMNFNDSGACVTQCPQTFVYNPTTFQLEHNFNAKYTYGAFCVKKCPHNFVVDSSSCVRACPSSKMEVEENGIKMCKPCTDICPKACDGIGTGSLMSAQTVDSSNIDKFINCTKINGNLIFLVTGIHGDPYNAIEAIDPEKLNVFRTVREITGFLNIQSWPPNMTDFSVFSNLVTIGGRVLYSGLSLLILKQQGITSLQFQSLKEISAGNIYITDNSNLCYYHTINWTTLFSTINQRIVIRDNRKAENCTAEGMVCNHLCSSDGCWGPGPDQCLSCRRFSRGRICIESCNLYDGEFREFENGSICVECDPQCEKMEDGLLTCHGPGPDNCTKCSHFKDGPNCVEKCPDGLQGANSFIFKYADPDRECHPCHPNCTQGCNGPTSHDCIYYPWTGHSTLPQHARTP

BSA [9] = molecular target: T6, BSA (bovine, UniProt P02769); test: as above
T6 construct: also called bovine serum albumin

HER3-ECD-Fc [10] = molecular target: T7, HER3-ECD-Fc (human, UniProt P21860 20-643, limits assumed); test: as above
T7 construct: extracellular domain; also called HER3-FC; HER3-IgG

HER2-ECD [11] = molecular target: T8, HER2-ECD (human, UniProt P04626 23-652); test: as above
T8 construct: extracellular domain

Xolair [12] = molecular target: T9, Xolair; test: as above
T9 construct: not shown: the constant regions

[13] = molecular target: T10, hEGFR-ECD-Fc (human EGFR extracellular domain fused to an Fc region of human IgG1) (human, UniProt P00533 25-645); test: as above
T10 construct: extracellular domain; not shown: Fc region of human IgG1

hEGFR-ECD [14] = molecular target: T11, hEGFR-ECD (human, UniProt P00533 25-645); test: phage solution binding competition ELISA as in Example 1, antigen in solution varied
T11 construct: extracellular domain

HER3-ECD-Fc [15] = molecular target: T7, HER3-ECD-Fc; test: as above
mHER3-Fc = molecular target: T12, mHER3-Fc; test: direct phage ELISA on coated proteins as in Example 5, OD450
T12 chain: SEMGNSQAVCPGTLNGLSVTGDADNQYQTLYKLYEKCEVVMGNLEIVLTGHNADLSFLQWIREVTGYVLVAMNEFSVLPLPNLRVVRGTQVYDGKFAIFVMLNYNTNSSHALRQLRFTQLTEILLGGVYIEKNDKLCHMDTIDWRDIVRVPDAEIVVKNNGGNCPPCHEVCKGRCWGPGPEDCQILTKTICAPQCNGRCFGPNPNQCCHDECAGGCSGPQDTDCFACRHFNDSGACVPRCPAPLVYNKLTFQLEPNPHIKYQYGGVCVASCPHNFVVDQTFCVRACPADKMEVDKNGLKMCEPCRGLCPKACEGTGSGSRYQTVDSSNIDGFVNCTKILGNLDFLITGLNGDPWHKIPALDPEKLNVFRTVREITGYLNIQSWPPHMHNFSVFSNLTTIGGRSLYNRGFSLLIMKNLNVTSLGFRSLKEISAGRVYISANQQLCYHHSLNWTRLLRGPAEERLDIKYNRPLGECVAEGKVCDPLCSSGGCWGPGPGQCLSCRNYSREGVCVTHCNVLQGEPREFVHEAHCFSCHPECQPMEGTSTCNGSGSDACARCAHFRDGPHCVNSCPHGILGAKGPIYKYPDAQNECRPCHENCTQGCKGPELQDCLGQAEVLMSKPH

HER4-ECD-Fc [16] = molecular target: T5, HER4-ECD-Fc; test: as above
BSA [17] = molecular target: T6, BSA; test: as above
TGF-α = molecular target: T13, TGF-α; test: as above
T13 construct: also called transforming growth factor alpha

Xolair [18] = molecular target: T9, Xolair; test: as above
[19] = molecular target: T10, hEGFR-ECD-Fc (human EGFR extracellular …); test: phage ELISA of clones from plate selection
Erbitux = molecular target: T14, Erbitux; test: direct phage ELISA, proteins coated at 2 µg/ml, phage-Fab supernatant, OD450;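 note: specificity test of dual-activity clones, with binding assessed across an antigen panel to check whether each recognises only its cognate target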
T14 construct: also called cetuximab; C225; not shown: the constant regions

hEGFR-ECD [20] = molecular target: T11, hEGFR-ECD; test: as above
mEGFR-ECD-Fc = molecular target: T15, mEGFR-ECD-Fc (murine, UniProt Q01279 25-647); test: competitive ELISA: serial dilutions of mEGFR-ECD-Fc with fixed D1.5 on hEGFR-ECD-Fc coated plate
T15 construct: extracellular domain; also called murine EGFR; not shown: Fc

hEGFR-ECD [21] = molecular target: T11, hEGFR-ECD; test: SPR, BIAcore-2000, mIgG D1.5 immobilized on CM5 (~150 RU), EGFR-ECD 12.5-200 nM as analyte, 25 C, 1:1 Langmuir model
HER2-ECD [22] = molecular target: T8, HER2-ECD; test: direct phage ELISA on coated proteins as in Example 5, OD450
hEGFR-ECD [23] = molecular target: T11, hEGFR-ECD; test: phage solution binding competition ELISA: hEGFR-ECD in solution varied, unbound phage captured on antigen-coated plate

T6 sequence (P02769 25-607 limits assumed): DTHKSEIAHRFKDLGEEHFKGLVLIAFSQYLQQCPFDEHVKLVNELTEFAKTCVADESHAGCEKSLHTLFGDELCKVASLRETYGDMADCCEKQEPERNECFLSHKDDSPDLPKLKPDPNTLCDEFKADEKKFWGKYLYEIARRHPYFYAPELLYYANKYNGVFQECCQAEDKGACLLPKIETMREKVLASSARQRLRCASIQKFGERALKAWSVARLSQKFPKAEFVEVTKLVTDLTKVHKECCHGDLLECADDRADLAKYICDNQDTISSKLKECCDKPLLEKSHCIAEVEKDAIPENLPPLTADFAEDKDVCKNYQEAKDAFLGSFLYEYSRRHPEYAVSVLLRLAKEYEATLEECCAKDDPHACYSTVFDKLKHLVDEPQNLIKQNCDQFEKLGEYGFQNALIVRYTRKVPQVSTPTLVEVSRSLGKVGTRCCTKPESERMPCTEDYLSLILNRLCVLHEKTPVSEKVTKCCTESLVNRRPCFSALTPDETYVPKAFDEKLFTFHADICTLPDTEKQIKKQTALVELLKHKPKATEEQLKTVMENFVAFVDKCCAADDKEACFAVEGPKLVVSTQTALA

B1: DL11f (human IgG1) (bispecific antibody, V domains shown)
VH: EVQLVESGGGLVQPGGSLRLSCAASGFTLSGDWIHWVRQAPGKGLEWVGEISAAGGYTDYADSVKGRFTISADTSKNTAYLQMNSLRAEDTAVYYCARESRVSFEAAMDYWGQGTLVTVSS
VL: DIQMTQSPSSLSASVGDRVTITCRASQNIATDVAWYQQKPGKAPKLLIYSASFLYSGVPSRFSGSGSGTDFTLTISSLQPEDFATYYCQQSEPEPYTFGQGTKVEIKR
What does the source list for B1?
IC50 of inhibition of MDA-175 cell proliferation [1]: 0.8 to 1 µg/mL; fold higher affinity for HER3 than for EGFR [2]: 5 to 8 fold; Kd [3]: 19.9 nM; Kd [4]: 2.63 nM

B2: DL11f Fab (Fab, V domains shown)
VH: B1 VH
VL: B1 VL
Which results are given for B2?
fold higher affinity for HER3 than for EGFR [5]: 5 to 8 fold; Kd [6]: 0.39 nM; Kd [7]: 1.92 nM

B3: D1.5-400 (phage-displayed Fab clone) (Fab, V domains shown)
VH: B1 VH with L29F, S30T, D32N, A53P, A54S, F104Y
VL: DIQMTQSPSSLSASVGDRVTITCRASQDVLFYGNVAWYQQKPGKAPKLLIYDGSYLYSGVPSRFSGSGSGTDFTLTISSLQPEDFATYYCQQSYPAPYTFGQGTKVEIKR
notes: EGFR/HER4 clone
Does B3 bind (HER4-ECD-Fc [8])?
Result: binds

Does B3 bind (BSA [9])?
Result: no binding

Does B3 bind (HER3-ECD-Fc [10])?
Result: no binding

Does B3 bind (HER2-ECD [11])?
Result: no binding

Does B3 bind (Xolair [12])?
Result: no binding

Does B3 bind [13]?
Result: binds

B4: DL11 (phage-displayed Fab clone) (Fab, V domains shown)
VH: B1 VH with V48L
VL: B1 VL with N28D, I29L
notes: single Fab on phage
Which IC50 (hEGFR-ECD [14]) does the source give for B4 here?
The IC50 was 5.7 nM.

What about the IC50 (HER3-ECD-Fc [15]) of the same binder?
Its IC50 is 0.43 nM.

Does B4 bind (mHER3-Fc)?
Result: no binding

Does B4 bind (HER4-ECD-Fc [16])?
Result: no binding

Does B4 bind (BSA [17])?
Result: no binding

Does B4 bind (TGF-α)?
Result: no binding

Does B4 bind (Xolair [18])?
Result: no binding

B5: D1.5-201 (phage-displayed Fab clone) (Fab, V domains shown)
VH: B1 VH with L29F, S30T, D32N, A53P, A54S, F104Y
VL: DIQMTQSPSSLSASVGDRVTITCRASQAVWGGYIAPVAWYQQKPGKAPKLLIYDGSYLYSGVPSRFSGSGSGTDFTLTISSLQPEDFATYYCQQRLPTPYTFGQGTKVEIKR
notes: EGFR/HER2 dual-specific clone from the D1.5 light chain library
Does B5 bind [19]?
Result: binds

Does B5 bind (Erbitux)?
Result: no binding

Does B5 bind (HER4-ECD-Fc [8])?
Result: no binding

Does B5 bind (BSA [9])?
Result: no binding

Does B5 bind (hEGFR-ECD [20])?
Result: binds

Does B5 bind (HER3-ECD-Fc [10])?
Result: no binding

Does B5 bind (HER2-ECD [11])?
Result: binds

B6: D1.5 (mIgG2A) (antibody, V domains shown)
VH: B1 VH with L29F, S30T, D32N, A53P, A54S, F104Y
VL: B1 VL with N28D, I29V, A30S, D32A, E92Y, E94T
notes: also called mIgG D1.5; anti-EGFR mIgG2A
Which results are given for B6?
binding result (mEGFR-ECD-Fc): binds; Kd (hEGFR-ECD [21]): 1.2 nM

B7: DL7 (phage-displayed Fab clone) (Fab, V domains shown)
VH: B1 VH with S100A, F104Y
VL: B1 VL with N28D, I29L
Which IC50 (hEGFR-ECD [14]) does the source give for B7 here?
Its IC50 is 6.1 nM.

What about the IC50 (HER3-ECD-Fc [15]) of the same binder?
Its IC50 is 0.25 nM.

Does B7 bind (mHER3-Fc)?
Result: no binding

Does B7 bind (HER4-ECD-Fc [16])?
Result: no binding

Does B7 bind (BSA [17])?
Result: no binding

Does B7 bind (HER2-ECD [22])?
Result: no binding

Does B7 bind (TGF-α)?
Result: no binding

Does B7 bind (Xolair [18])?
Result: no binding

B8: D1.5 (phage-displayed Fab clone) (Fab, V domains shown)
VH: B1 VH with L29F, S30T, D32N, A53P, A54S, F104Y
VL: B1 VL with N28D, I29V, A30S, D32A, E92Y, E94T
For B8, which IC50 (hEGFR-ECD [23]) is on record?
Its IC50 is 0.39 nM.

Does B8 bind (HER4-ECD-Fc [8])?
Result: no binding

Does B8 bind (BSA [9])?
Result: no binding

Does B8 bind (HER3-ECD-Fc [10])?
Result: no binding

Does B8 bind (HER2-ECD [11])?
Result: no binding

Does B8 bind (Xolair [12])?
Result: no binding
